Assay results as given in patent US20260062487A1 (GRITSTONE BIO, published 2026).

Columns and labels:
[1] = target: T1, biotinylated refolded A*01:01/b2m with … (alanine at position 9) (human, UniProt P61769 21-119); test: BLI (Octet), biotinylated pHLA on streptavidin sensor
Method: (§1) All the assay conditions were prepared in a volume of 200 μL. The pHLA complex biotinylated at the C-terminal AviTag was used to ensure uniform directionality of the protein. […] Using the ForteBio Data Analysis suite, the data was normalized to the association curves followed by background normalization. Curve fitting using global fitting of the sensor data with the Octet™ software using 1:1 kinetic model with errors within 10%, X2below 3, and R2above 0.9 to determine the association and dissociation constants.

[2] = target: biotinylated refolded A*01:01/b2m with … (Ala 6) (human, UniProt P61769 21-119); test: BLI (Octet), biotinylated pHLA on streptavidin sensor, antibody as analyte;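 further: pHLA biotinylated through a C-terminal AviTag for uniform orientation, sensor data background-normalized, rate constants from global 1:1 kinetic fitting in Octet software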
Method: as §1

[3] = target: biotinylated refolded A*01:01/b2m with … (alanine at position 8) (human, UniProt P61769 21-119); test: as above
Method: as §1

[4] = target: biotinylated refolded A*01:01/b2m with […] (Ala 3) (human, UniProt P61769 21-119, biotinylated at the C-terminal AviTag); test: as above
Method: as §1

[5] = target: biotinylated refolded A*01:01/b2m with … (Ala 5) (human, UniProt P61769 21-119); test: as above
Method: as §1

[6] = target: biotinylated refolded A*01:01/b2m with … (Ala 2) (human, UniProt P61769 21-119); test: as above
Method: as §1

[7] = target: biotinylated refolded A*01:01/b2m with … (Ala 1) (human, UniProt P61769 21-119); test: as above
Method: as §1

[8] = target: biotinylated refolded A*01:01/b2m with … (Ala 4) (human, UniProt P61769 21-119); test: as above
Method: as §1

[9] = target: T2, biotinylated refolded G2-pHLA (A*01:01/b2m/…) (human, biotinylated at the C-terminal AviTag); test: as above
T2 construct: Soluble complex caught on streptavidin sensors or MSD plates; also called G2-peptide A*01:01/b2m complex; WT
Method: as §1

[10] = target: T1, biotinylated refolded A*01:01/b2m with …; test: as above
Method: as §1

[11] = target: T3, HLA-PEPTIDE target A*01:01_… (G2) on cells (human); test: flow cytometry, anti IgG PE, A375 9mer cells (1e6 copies of G2 pHLA per cell)
T3 construct: whole, on cells; also recovered from cell lysates in the IP-MS experiment; also called G2 pHLA; G2 target

[12] = target: T3, HLA-PEPTIDE target A*01:01_… (G2) on …; test: flow cytometry, K562-HLA cells pulsed with peptide
[13] = target: T4, A*01:01 with … (V or E 4) on pulsed K562-HLA cells (human); test: flow cytometry, K562-HLA cells pulsed with peptide
T4 construct: whole, on cells

[14] = target: T5, A*01:01 with … (V or E 2) on pulsed K562-HLA cells (human); test: flow cytometry, K562-HLA cells pulsed with peptide
T5 construct: whole, on cells

[15] = target: T6, A*01:01 with … (V or E 3) on pulsed K562-HLA cells (human); test: flow cytometry, K562-HLA cells pulsed with peptide
T6 construct: whole, on cells

[16] = target: T7, A*01:01 with … (V or E 6) on pulsed K562-HLA cells (human); test: flow cytometry, K562-HLA cells pulsed with peptide
T7 construct: whole, on cells

[17] = target: T8, A*01:01 with … (V or E 1) on pulsed K562-HLA cells (human); test: flow cytometry, K562-HLA cells pulsed with peptide
T8 construct: whole, on cells

[18] = target: T9, A*01:01 with … (V or E 5) on pulsed K562-HLA cells (human); test: flow cytometry, K562-HLA cells pulsed with peptide
T9 construct: whole, on cells

[19] = target: T3, HLA-PEPTIDE target A*01:01_… (G2) on …; test: IP-MS, NCI-H1703 lysate, Rep2
Method: (§2) 2×10⁸ cells expressing A*01:01/CT83 (NCI-H1703, A375±CT83) were re-suspended in 5 ml lysis buffer (1% CHAPS, 150 mM sodium chloride, 20 mM Tris pH 8) in the presence of phosphatase, and protease inhibitors. The cells were homogenized by sonication, rotated at 4° C. for 1 hr, and spun at 21,000×g for 30 min. to pellet cell debris.
(§3) After immunoprecipitation, the IP beads were isolated using filter plates, then washed to remove non-specific binding using Tris pH 8 buffers with increasing levels of NaCl. The HLA/peptide complex was eluted from the beads using 2N acetic acid. The protein components were removed from the peptides using C18 fractionation. The resultant peptides were taken to dryness by SpeedVac evaporation and stored at −20° C. prior to MS analysis.

[20] = target: T10, off-target HLA-A*01:01_… (ICE1) on cells (human); test: IP-MS, NCI-H1703 lysate, Rep2
T10 construct: whole, on cells; also called … (IC1); validated OTLA
Method: as §2, §3

[21] = target: T11, off-target HLA-A*01:01_… (PTS) on cells (human); test: IP-MS, NCI-H1703 lysate, Rep2
T11 construct: whole, on cells; also called validated OTLA; Control peptide-3
Method: as §2, §3

[22] = target: T12, HLA-A*01:01 with … (ERGIC3) from cells (human); test: IP-MS, NCI-H1703 lysate, Rep2
T12 construct: whole, on cells
Method: as §2, §3

[23] = target: T3, HLA-PEPTIDE target A*01:01_… (G2) on …; test: flow cytometry, anti-IgG PE, peptide-pulsed K562 cells
Method: (§4) HLA-transduced K562 cells were pulsed the night before with 50 μM of peptide (Genscript) in IDMEM containing 1% FBS in 6 well plates and incubated under standard tissue culture conditions. Cells were harvested, washed in PBS, and stained with eBioscience Fixable Viability Dye eFluor 450 for 15 minutes at room temperature. […] After another wash, PE-conjugated goat anti-human IgG secondary antibody (Jackson ImmunoResearch) was added at 1:100. After incubating at 4° C. for 45 minutes and washing in PBS+2% FBS, cells were resuspended in PBS+2% FBS and analyzed by flow cytometry. Flow cytometric analysis was performed on the Attune NxT Flow Cytometer (ThermoFisher) using the Attune NxT Software. Data was analyzed using FlowJo.

CD3 on CD3+ Jurkat cells = target: T13, CD3 on CD3+ Jurkat cells (human, UniProt P07766 23-207); test: flow cytometry, anti IgG PE, CD3+ Jurkat cells
T13 construct: whole, on cells
T13 sequence (P07766 23-207): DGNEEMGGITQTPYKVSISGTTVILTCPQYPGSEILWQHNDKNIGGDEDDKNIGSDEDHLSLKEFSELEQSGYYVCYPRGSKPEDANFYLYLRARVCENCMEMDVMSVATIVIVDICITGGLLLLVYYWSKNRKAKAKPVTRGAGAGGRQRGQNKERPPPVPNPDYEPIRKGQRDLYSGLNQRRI
Method: Increasing concentrations of the antibodies were incubated with CD3(+) and CD9(−) Jurkat cells. Binding was determined by flow cytometery using an anti IgG-PE antibody for detection.

[24] = target: T3, HLA-PEPTIDE target A*01:01_… (G2) on …; test: cell-based or functional assay
[25] = target: T3, HLA-PEPTIDE target A*01:01_… (G2) on …; test: flow cytometry, anti-IgG PE, K562-A01:01 cells pulsed with peptide (20,000 to 40,000 copies/cell)
Method: as §4

[26] = target: T14, off-target HLA-A*01:01_… (KDM7A) on cells (human); test: as above
T14 construct: whole, on cells; also called validated OTLA; Control peptide-4
Method: as §4

[27] = target: T3, HLA-PEPTIDE target A*01:01_… (G2) on …; test: IP-MS, NCI-H1703 lysate, Rep1
Method: as §2, §3

[28] = target: T10, off-target HLA-A*01:01_… (ICE1) on cells; test: IP-MS, NCI-H1703 lysate, Rep1
Method: as §2, §3

[29] = target: T11, off-target HLA-A*01:01_… (PTS) on cells; test: IP-MS, NCI-H1703 lysate, Rep1
Method: as §2, §3

[30] = target: T12, HLA-A*01:01 with … (ERGIC3) from cells; test: IP-MS, NCI-H1703 lysate, Rep1
Method: as §2, §3

[31] = target: T3, HLA-PEPTIDE target A*01:01_… (G2) on …; test: flow cytometry, anti IgG PE, A375 9mer cells (1e6 copies per cell)
Method: A375 transduced with luciferase alone served as the negative control. […] Binding was determined by flow cytometery using an anti IgG-PE antibody for detection.

[32] = target: T15, G5 pHLA (HLA-B*35:01 with …) on cells (human); test: flow cytometry, peptide-pulsed cells
T15 construct: whole, on cells
Method: as §4

[33] = target: T12, HLA-A*01:01 with … (ERGIC3) from cells; test: IP-MS, K562-A*01:01 lysate (ND: Not detected; W6/32 recovers the peptide)
Method: as §2, §3

B1: monovalent Format 3-E07-hOKT3a antibody (bispecific antibody, V domains shown)
VH 1: QVQLVQSGAEVKKPGASVKVSCKASGFTFTNYLIHWVRQAPGQGLEWMGWINPNSGGTNYAQRLQGRVTMTRDTSTSTVYMELSSLRSEDTAVYYCARDYGAGNDYWGQGTLVTVSS
VL 1: DIQMTQSPSSLSASVGDRVTITCRASQEIRRWLAWYQQKPGKAPKLLIYAASNLQSGVPSRFSGSGSGTDFTLTISSLQPEDFATYYCQQSYSTPYTFGQGTKLEIK
VH 2: QVQLVQSGAEVKKPGASVKVSCKASGYTFTRYTMHWVRQAPGQGLEWMGYINPSRGYTNYNQKFKDRVTLTTDKSSSTAYMELSSLRSEDTAVYYCARYYDDHYSLDYWGQGTLVTVSS
VL 2: DIQMTQSPSSLSASVGDRVTITCSASSSVSYMNWYQQKPGKAPKRLIYDTSKLASGVPSRFSGSGSGTDFTLTISSLQPEDFATYYCQQWSSNPFTFGQGTKLEIK
[1]
  binding result: no binding (tested: typically 500-0 nM antibody)
[2]
  Fold change in Response (against WT): 2.7 fold
  Fold change in affinity (against WT): 13.3 fold
  Kd: 16 nM
  Max Response (nm): 0.09 nm
[3]
  Fold change in affinity (against WT): 6.7 fold
  Kd: 8 nM
  Max Response (nm): 0.24 nm
[4]
  Fold change in Response (against WT): 1.6 fold
  Fold change in affinity (against WT): 14.2 fold
  Kd: 17 nM
  Max Response (nm): 0.15 nm
[5]
  Fold change in affinity (against WT): 13.3 fold
  Kd: 16 nM
  Max Response (nm): 0.21 nm
[6]
  Kd: 1.5 nM
  Max Response (nm): 0.24 nm
[7]
  Fold change in affinity (against WT): 2.5 fold
  Kd: 3 nM
  Max Response (nm): 0.26 nm
[8]
  Fold change in affinity (against WT): 7.3 fold
  Kd: 8.7 nM
  Max Response (nm): 0.24 nm
[9]
  Kd: 1.2 nM
  Max Response (nm): 0.24 nm
[10]
  Max Response (nm): 0 nm

B2: 41-E07 hOKT3a diabody (Format 41 31E07-CD3 bispecific antibody) (bispecific antibody, human IgG1, kappa)
chain: QVQLVQSGAEVKKPGASVKVSCKASGFTFTNYLIHWVRQAPGQGLEWMGWINPNSGGTNYAQRLQGRVTMTRDTSTSTVYMELSSLRSEDTAVYYCARDYGAGNDYWGQGTLVTVSSGGGGSGGGGSDIQMTQSPSSLSASVGDRVTITCRASQEIRRWLAWYQQKPGKAPKLLIYAASNLQSGVPSRFSGSGSGTDFTLTISSLQPEDFATYYCQQSYSTPYTFGQGTKLEIKGGGGSEPKSSDKTHTCPPCPAPEFEGGPSVFLFPPKPKDTLMISRTPEVTCVVVDVSHEDPEVKFNWYVDGVEVHNAKTKPREEQYNSTYRVVSVLTVLHQDWLNGKEYKCKVSNKALPASIEKTISKAKGQPREPQVYTLPPCREEMTKNQVSLWCLVKGFYPSDIAVEWESNGQPENNYKTTPPVLDSDGSFFLYSKLTVDKSRWQQGNVFSCSVMHEALHNHYTQKSLSLSPGK
heavy: QVQLVQSGAEVKKPGASVKVSCKASGFTFTNYLIHWVRQAPGQGLEWMGWINPNSGGTNYAQRLQGRVTMTRDTSTSTVYMELSSLRSEDTAVYYCARDYGAGNDYWGQGTLVTVSSGGGGSGGGGSDIQMTQSPSSLSASVGDRVTITCRASQEIRRWLAWYQQKPGKAPKLLIYAASNLQSGVPSRFSGSGSGTDFTLTISSLQPEDFATYYCQQSYSTPYTFGQGTKLEIKGGGGSGGGGSQVQLVQSGAEVKKPGASVKVSCKASGYTFTRYTMHWVRQAPGQGLEWMGYINPSRGYTNYNQKFKDRVTLTTDKSSSTAYMELSSLRSEDTAVYYCARYYDDHYSLDYWGQGTLVTVSSASTKGPSVFPLAPSSKSTSGGTAALGCLVKDYFPEPVTVSWNSGALTSGVHTFPAVLQSSGLYSLSSVVTVPSSSLGTQTYICNVNHKPSNTKVDKRVEPKSCDKTHTCPPCPAPEFEGGPSVFLFPPKPKDTLMISRTPEVTCVVVDVSHEDPEVKFNWYVDGVEVHNAKTKPREEQYNSTYRVVSVLTVLHQDWLNGKEYKCKVSNKALPASIEKTISKAKGQPREPQVCTLPPSREEMTKNQVSLSCAVKGFYPSDIAVEWESNGQPENNYKTTPPVLDSDGSFFLVSKLTVDKSRWQQGNVFSCSVMHEALHNRFTQKSLSLSPGK
light: DIQMTQSPSSLSASVGDRVTITCSASSSVSYMNWYQQKPGKAPKRLIYDTSKLASGVPSRFSGSGSGTDFTLTISSLQPEDFATYYCQQWSSNPFTFGQGTKLEIKRTVAAPSVFIFPPSDEQLKSGTASVVCLLNNFYPREAKVQWKVDNALQSGNSQESVTEQDSKDSTYSLSSTLTLSKADYEKHKVYACEVTHQGLSSPVTKSFNRGEC
notes: also called E07-CD3 diabody; 41-31E07-hOKT3a
[11]
  EC50 (read off the curve): ~3 nM
[12]
  Max Binding: 5560
[13]
  Max Binding: 1560
[14]
  Max Binding: 4680
[15]
  Max Binding: 5680
[16]
  Max Binding: 1400
[17]
  Max Binding: 1880
[18]
  Max Binding: 2630
[19]
  copies per cell of the peptide recovered by immunoprecipitation: 2960 copies per cell
[20]
  copies per cell of the peptide recovered by immunoprecipitation: 32 copies per cell
[21]
  copies per cell of the peptide recovered by immunoprecipitation: 42 copies per cell
[22]
  copies per cell of the peptide recovered by immunoprecipitation: 37 copies per cell
[23]
  EC50 (read off the curve): ~0.06 µg/mL
CD3 on CD3+ Jurkat cells
  EC50 (read off the curve): ~20 nM
[24]
  EC50 (ug/ml), luciferase-cytotoxicity assay with human T cells, A375-CT83 cells: 0.00017 µg/mL
  EC50 (ug/ml), luciferase-cytotoxicity assay with human T cells, NCI-H820 cells: 0.077 µg/mL
  EC50 (ug/ml), luciferase-cytotoxicity assay with human T cells, NCI-H1703 cells: 0.0025 µg/mL
[25]
  EC50 (read off the curve): ~0.3 µg/mL
[26]
  binding result: no binding (tested: 100 ug/ml)
[27]
  copies per cell of the peptide recovered by immunoprecipitation: 2960 copies per cell
[28]
  copies per cell of the peptide recovered by immunoprecipitation: 33 copies per cell
[29]
  copies per cell of the peptide recovered by immunoprecipitation: 40 copies per cell
[30]
  copies per cell of the peptide recovered by immunoprecipitation: 34 copies per cell
[31]
  EC50 (read off the curve): ~2 nM
[32]
  log difference in EC50 against the G2 peptide [..]: 3 log
[33]
  binding result: no binding
